Key:
[1] = biological target: recombinant purified multimeric HIV-1 CA tubes assembled from cross-linked CA hexamers (CA A14C/E45C) (HIV-1 (NL4-3))
[2] = biological target: recombinant purified multimeric HIV-1 CA tubes assembled from cross-linked CA hexamers (CA A14C/E45C) (HIV-1 (NL4-3)); experiment: co-sedimentation; 20 μL CA tubes (~1.4 μM) mixed with 80 μL clarified HEK293T whole-cell lysate (1.5 mg/mL) in CA binding buffer (10 mM Tris pH 7.4, 1.5 mM MgCl2, 10 mM KCl), 1 h at room temperature; 21,000 x g for 8 min at 4°C; NUP153C detected with anti-HA, signals normalized to input
[3] = biological target: recombinant purified multimeric HIV-1 CA tubes assembled from cross-linked CA hexamers (CA A14C/E45C) (HIV-1 (NL4-3)); experiment: cross-linking; disulfide cross-linking of purified CA A14C/E45C by dialysis in assembly buffer (25 mM Tris-Cl pH 8.0, 1 M NaCl) with falling β-ME at 4°C; hexamers assessed by SDS-PAGE, tubes by transmission electron microscopy

Substance | HIV-GFP transduction of HEK293T cells expressing TRIM-NUP153C, relative percentage of GFP-positive cells [1] [%] | other results
TRIM-NUP153C-HA G1418A (from UniProt Q0PF16 1-304; P49790 896-1475) | 79 | –
TRIM-NUP153C-HA T1416M (from UniProt Q0PF16 1-304; P49790 896-1475) | 86.8 | –
TRIM-NUP153C-HA S1412M (from UniProt Q0PF16 1-304; P49790 896-1475) | 64.1 | –
TRIM-NUP153C-HA F1417Y (from UniProt Q0PF16 1-304; P49790 896-1475) | 77.9 | –
TRIM-NUP153C-HA P1411M (from UniProt Q0PF16 1-304; P49790 896-1475) | – | HIV-GFP transduction of HEK293T cells expressing TRIM-NUP153C, relative percentage of GFP-positive cells; restriction significantly different from wild type [1]: 67.9%
TRIM-NUP153C(human)-HA, wild type (from UniProt Q0PF16 1-304; P49790 896-1475) | – | HIV-GFP transduction of HEK293T cells expressing TRIM-NUP153C, GFP-positive cells relative to the no TRIM control (flow cytometry) [1]: 53%; percent detected in the pellet fraction with CA tubes [2]: 46%
TRIM-NUP153C-HA V1414I (from UniProt Q0PF16 1-304; P49790 896-1475) | 63.9 | –
TRIM-NUP153C-HA G1413M (from UniProt Q0PF16 1-304; P49790 896-1475) | 61.7 | –
TRIM-NUP153C-HA G1413W (from UniProt Q0PF16 1-304; P49790 896-1475) | – | percent bound to CA tubes (cosedimented) [2]: 59%
TRIM-NUP153C-HA S1412P (from UniProt Q0PF16 1-304; P49790 896-1475) | – | percent bound to CA tubes (cosedimented) [2]: 63%
TRIM-NUP153C-HA F1415M (from UniProt Q0PF16 1-304; P49790 896-1475) | 52 | –
recombinant purified multimeric HIV-1 CA tubes assembled from cross-linked CA hexamers (CA A14C/E45C) (natural protein) | – | stoichiometry N [3]: 6

Reference: PMC9599535
